Positions count from the first letter of the chain named. Like-named read-outs stand apart in the source and are kept apart here.
How the values were obtained:
tau peptide 352-380 [1] = biological target: T1, tau peptide 352-380; assay: ELISA
T1 peptide: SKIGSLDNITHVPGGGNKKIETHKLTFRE

tau peptide 314-342 [2] = biological target: T2, tau peptide 314-342; assay: ELISA
T2 peptide: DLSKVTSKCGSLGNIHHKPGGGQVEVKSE

tau peptide 282-311 [3] = biological target: T3, tau peptide 282-311; assay: ELISA
T3 peptide: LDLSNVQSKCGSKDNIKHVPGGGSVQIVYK

tau peptide 256-285 [4] = biological target: T4, tau peptide 256-285; assay: ELISA
T4 peptide: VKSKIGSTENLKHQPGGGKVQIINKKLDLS

tau peptide 352-380 [5] = biological target: T1, tau peptide 352-380; assay: ELISA
tau peptide 314-342 [6] = biological target: T2, tau peptide 314-342; assay: ELISA
tau peptide 282-311 [7] = biological target: T3, tau peptide 282-311; assay: ELISA
tau peptide 256-285 [8] = biological target: T4, tau peptide 256-285; assay: ELISA
[9] = biological target: T5, misdisordered truncated tau 151-391/4R (UniProt P10636 468-708); assay: SPR
[10] = biological target: T5, misdisordered truncated tau 151-391/4R; assay: SPR; remark: listed apart in the source
[11] = biological target: T6, full length physiological tau 2N4R (UniProt P10636 1-758); assay: SPR
[12] = biological target: T5, misdisordered truncated tau 151-391/4R; assay: SPR; remark: listed apart in the source
[13] = biological target: T5, misdisordered truncated tau 151-391/4R; assay: ELISA
tau peptide 352-380 [14] = biological target: T1, tau peptide 352-380; assay: ELISA; IgG4
tau peptide 314-342 [15] = biological target: T2, tau peptide 314-342; assay: ELISA; IgG4
tau peptide 256-285 [16] = biological target: T4, tau peptide 256-285; assay: ELISA; IgG4
[17] = biological target: T5, misdisordered truncated tau 151-391/4R; assay: SPR; IgG4
[18] = biological target: T6, full length physiological tau 2N4R; assay: SPR; IgG4
tau peptide 352-380 [19] = biological target: T1, tau peptide 352-380; assay: ELISA
tau peptide 314-342 [20] = biological target: T2, tau peptide 314-342; assay: ELISA
tau peptide 282-311 [21] = biological target: T3, tau peptide 282-311; assay: ELISA
[22] = biological target: T5, misdisordered truncated tau 151-391/4R; assay: SPR; remark: listed apart in the source
tau peptide 256-285 [23] = biological target: T4, tau peptide 256-285; assay: ELISA
[24] = biological target: T5, misdisordered truncated tau 151-391/4R; assay: ELISA; IgG1
[25] = biological target: T6, full length physiological tau 2N4R; assay: ELISA; IgG1
[26] = biological target: T5, misdisordered truncated tau 151-391/4R; assay: SPR; IgG1
[27] = biological target: T6, full length physiological tau 2N4R; assay: SPR; IgG1
[28] = biological target: T5, misdisordered truncated tau 151-391/4R; assay: SPR; remark: listed apart in the source
[29] = biological target: T5, misdisordered truncated tau 151-391/4R; assay: SPR; remark: listed apart in the source

T6 sequence (P10636 other isoform, or with tags, fused parts or gaps): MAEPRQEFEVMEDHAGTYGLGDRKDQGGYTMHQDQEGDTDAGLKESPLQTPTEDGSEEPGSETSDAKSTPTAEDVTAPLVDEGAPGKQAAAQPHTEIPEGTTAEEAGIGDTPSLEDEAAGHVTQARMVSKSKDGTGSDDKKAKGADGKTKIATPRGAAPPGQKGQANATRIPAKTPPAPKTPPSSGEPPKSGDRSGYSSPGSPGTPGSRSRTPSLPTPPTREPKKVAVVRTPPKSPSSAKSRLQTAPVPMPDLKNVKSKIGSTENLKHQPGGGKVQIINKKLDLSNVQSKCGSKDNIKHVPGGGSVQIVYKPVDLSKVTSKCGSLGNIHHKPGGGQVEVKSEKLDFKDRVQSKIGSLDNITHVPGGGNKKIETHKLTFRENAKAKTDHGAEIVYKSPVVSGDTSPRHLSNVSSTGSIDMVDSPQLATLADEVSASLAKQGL
T5 sequence (P10636 468-708): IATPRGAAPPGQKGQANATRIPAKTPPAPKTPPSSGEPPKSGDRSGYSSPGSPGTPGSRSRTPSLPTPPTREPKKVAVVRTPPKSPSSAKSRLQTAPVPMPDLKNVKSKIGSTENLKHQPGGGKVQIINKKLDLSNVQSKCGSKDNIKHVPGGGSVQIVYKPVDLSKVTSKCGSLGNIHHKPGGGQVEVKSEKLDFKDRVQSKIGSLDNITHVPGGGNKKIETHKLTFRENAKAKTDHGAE

B1: chimeric DC8E8 (isotype not stated where tested) (antibody)
VH: QVQLQQSGPELVKPGTSVKMPCKASGYIFTDYVISWVKQRTGQGLEWIGEIFPRSGSTYYNEKFKGKATLTADKSSNTAYMQLSSVTSEDSAVYFCARDYYGTSFAMDYWGQGTSVTVSS
light: DIVMSQSPSSLAVSAGEKVTMSCKSSQSLLNSRTRKNYLAWYQQKPGQSPKLLIYWASTRESGVPDRFTGSGSGTDFTLTISSVQAEDLAVYYCKQSFYLRTFGGGTKLDIKRTVAAPSVFIFPPSDEQLKSGTASVVCLLNNFYPREAKVQWKVDNALQSGNSQESVTEQDSKDSTYSLSSTLTLSKADYEKHKVYACEVTHQGLSSPVTKSFNRGEC
EC50 (tau peptide 352-380 [1]): 0.087 mg/L | EC50 (tau peptide 314-342 [2]): 0.0173 mg/L | EC50 (tau peptide 282-311 [3]): 0.00731 mg/L | EC50 (tau peptide 256-285 [4]): 0.0212 mg/L | EC50 (tau peptide 352-380 [5]): 0.0814 mg/L | EC50 (tau peptide 314-342 [6]): 0.0265 mg/L | EC50 (tau peptide 282-311 [7]): 0.00852 mg/L | EC50 (tau peptide 256-285 [8]): 0.0297 mg/L | Kd [9]: 0.0104 µM | Ka [10]: 4.2e+08 M⁻¹ | Ka [11]: 4.4e+07 M⁻¹ | Kd [12]: 0.0104 µM

B2: chimeric DC8E8, human IgG1/kappa (antibody)
heavy: not shown
light: B1 light
EC50 [13]: 0.0214 mg/L

B3: chimeric DC8E8, human IgG4/kappa (antibody)
heavy: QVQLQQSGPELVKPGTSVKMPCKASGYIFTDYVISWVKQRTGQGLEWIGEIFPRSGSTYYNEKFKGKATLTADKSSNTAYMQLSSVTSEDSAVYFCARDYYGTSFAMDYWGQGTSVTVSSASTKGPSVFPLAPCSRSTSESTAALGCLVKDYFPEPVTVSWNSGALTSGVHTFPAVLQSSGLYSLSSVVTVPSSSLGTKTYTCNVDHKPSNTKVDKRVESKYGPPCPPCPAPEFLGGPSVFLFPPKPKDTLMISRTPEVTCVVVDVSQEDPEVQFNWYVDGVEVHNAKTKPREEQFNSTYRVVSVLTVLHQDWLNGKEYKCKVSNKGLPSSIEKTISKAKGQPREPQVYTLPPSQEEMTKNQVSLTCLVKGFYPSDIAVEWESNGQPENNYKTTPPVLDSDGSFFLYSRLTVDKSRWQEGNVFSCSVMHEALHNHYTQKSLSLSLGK
light: B1 light
EC50 [13]: 0.0507 mg/L

B4: AX016-IgG4, humanized DC8E8 RHD/RKB, IgG4 isotype (antibody)
heavy: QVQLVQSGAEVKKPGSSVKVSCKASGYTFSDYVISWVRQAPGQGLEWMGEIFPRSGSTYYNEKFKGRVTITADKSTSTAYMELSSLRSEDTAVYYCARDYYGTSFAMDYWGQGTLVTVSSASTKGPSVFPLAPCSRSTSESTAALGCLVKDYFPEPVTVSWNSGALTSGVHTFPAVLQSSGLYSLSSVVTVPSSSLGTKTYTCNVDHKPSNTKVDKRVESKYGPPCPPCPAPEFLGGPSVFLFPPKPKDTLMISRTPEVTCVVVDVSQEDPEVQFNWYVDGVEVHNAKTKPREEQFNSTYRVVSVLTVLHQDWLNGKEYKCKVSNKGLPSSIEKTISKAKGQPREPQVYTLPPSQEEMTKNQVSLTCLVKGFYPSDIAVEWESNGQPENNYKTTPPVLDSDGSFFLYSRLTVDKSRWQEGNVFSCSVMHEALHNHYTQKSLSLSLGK
light: DIVMSQSPLSLPVTPGEPASISCKSSQSLLNSRTRKNYLAWYLQKPGQSPQLLIYWASTRESGVPDRFTGSGSGTDFTLKISRVEAEDVGVYYCKQSFYLRTFGQGTKVEIKRTVAAPSVFIFPPSDEQLKSGTASVVCLLNNFYPREAKVQWKVDNALQSGNSQESVTEQDSKDSTYSLSSTLTLSKADYEKHKVYACEVTHQGLSSPVTKSFNRGEC
EC50 (tau peptide 352-380 [14]): 0.085 mg/L | EC50 (tau peptide 314-342 [15]): 0.0153 mg/L | EC50 (tau peptide 256-285 [16]): 0.0139 mg/L | EC50 (tau peptide 282-311 [7]): 0.00756 mg/L | Ka [17]: 7.2e+08 M⁻¹ | Ka [18]: 6.6e+07 M⁻¹

B5: AX005-IgG4, humanized DC8E8 RHE/RKA, IgG4 isotype (antibody)
heavy: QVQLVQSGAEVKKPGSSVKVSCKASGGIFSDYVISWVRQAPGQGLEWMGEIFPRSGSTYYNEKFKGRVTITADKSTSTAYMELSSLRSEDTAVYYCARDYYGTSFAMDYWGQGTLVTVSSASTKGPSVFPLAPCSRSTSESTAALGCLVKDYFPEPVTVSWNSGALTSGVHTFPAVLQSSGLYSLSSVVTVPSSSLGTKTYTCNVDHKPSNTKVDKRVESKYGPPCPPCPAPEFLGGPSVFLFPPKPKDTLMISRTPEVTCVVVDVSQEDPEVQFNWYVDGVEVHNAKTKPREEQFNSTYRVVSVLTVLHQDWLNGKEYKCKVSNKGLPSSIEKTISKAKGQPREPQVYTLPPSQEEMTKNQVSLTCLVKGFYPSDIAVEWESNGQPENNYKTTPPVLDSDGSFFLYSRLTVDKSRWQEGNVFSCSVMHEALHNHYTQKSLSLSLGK
light: B4 light with S5T
EC50 (tau peptide 352-380 [14]): 0.397 mg/L | EC50 (tau peptide 314-342 [15]): 0.0745 mg/L | EC50 (tau peptide 282-311 [7]): 0.00898 mg/L

B6: AX017-IgG4, humanized DC8E8 RHE/RKB, IgG4 isotype (antibody)
heavy: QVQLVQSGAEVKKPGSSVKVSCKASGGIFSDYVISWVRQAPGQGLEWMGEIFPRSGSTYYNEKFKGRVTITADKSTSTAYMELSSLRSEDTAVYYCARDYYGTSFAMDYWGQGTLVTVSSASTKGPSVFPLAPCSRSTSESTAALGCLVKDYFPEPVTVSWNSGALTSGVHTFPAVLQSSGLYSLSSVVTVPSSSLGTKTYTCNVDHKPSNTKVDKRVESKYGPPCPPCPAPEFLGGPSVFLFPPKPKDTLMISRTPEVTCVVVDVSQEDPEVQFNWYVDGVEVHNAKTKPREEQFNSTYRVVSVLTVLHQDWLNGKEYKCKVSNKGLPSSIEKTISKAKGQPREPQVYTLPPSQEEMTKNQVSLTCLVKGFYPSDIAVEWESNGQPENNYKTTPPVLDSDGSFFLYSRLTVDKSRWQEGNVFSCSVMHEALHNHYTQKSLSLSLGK
light: B4 light
EC50 (tau peptide 352-380 [14]): 0.385 mg/L | EC50 (tau peptide 314-342 [15]): 0.0726 mg/L | EC50 (tau peptide 282-311 [7]): 0.00901 mg/L

B7: AX017-IgG1, humanized DC8E8 RHE/RKB, IgG1 isotype (antibody)
heavy: not shown
light: B4 light
EC50 (tau peptide 352-380 [19]): 0.883 mg/L | EC50 (tau peptide 314-342 [20]): 0.096 mg/L | EC50 (tau peptide 282-311 [21]): 0.00766 mg/L

B8: AX004, humanized DC8E8 RHD/RKA (isotype not stated where tested) (antibody)
VH: QVQLVQSGAEVKKPGSSVKVSCKASGYTFSDYVISWVRQAPGQGLEWMGEIFPRSGSTYYNEKFKGRVTITADKSTSTAYMELSSLRSEDTAVYYCARDYYGTSFAMDYWGQGTLVTVSS
light: B4 light with S5T
Kd [22]: 0.0147 µM | Kd [9]: 0.0147 µM

B9: AX016-IgG1, humanized DC8E8 RHD/RKB, IgG1 isotype (antibody)
heavy: not shown
light: B4 light
EC50 (tau peptide 352-380 [19]): 0.0566 mg/L | EC50 (tau peptide 314-342 [20]): 0.0122 mg/L | EC50 (tau peptide 282-311 [21]): 0.00647 mg/L | EC50 (tau peptide 256-285 [23]): 0.0117 mg/L | EC50 [24]: 0.0137 mg/L | EC50 [25]: 0.0513 mg/L | Ka [26]: 1.6e+09 M⁻¹ | Ka [27]: 1.9e+08 M⁻¹

B10: AX005-IgG1, humanized DC8E8 RHE/RKA, IgG1 isotype (antibody)
heavy: not shown
light: B4 light with S5T
EC50 (tau peptide 352-380 [19]): 0.579 mg/L | EC50 (tau peptide 314-342 [20]): 0.0562 mg/L | EC50 (tau peptide 282-311 [21]): 0.0068 mg/L

B11: AX004-IgG1, humanized DC8E8 RHD/RKA, IgG1 isotype (antibody)
heavy: not shown
light: B4 light with S5T
EC50 (tau peptide 352-380 [19]): 0.0587 mg/L | EC50 (tau peptide 314-342 [20]): 0.0118 mg/L | EC50 (tau peptide 282-311 [21]): 0.00598 mg/L | EC50 (tau peptide 256-285 [23]): 0.0121 mg/L | EC50 [24]: 0.0147 mg/L | EC50 [25]: 0.0532 mg/L | Ka [26]: 1.6e+09 M⁻¹ | Ka [27]: 1.1e+08 M⁻¹

B12: AX016, humanized DC8E8 RHD/RKB (isotype not stated where tested) (antibody)
VH: B8 VH
light: B4 light
Kd [28]: 0.00939 µM | Kd [9]: 0.00939 µM

B13: AX004-IgG4, humanized DC8E8 RHD/RKA, IgG4 isotype (antibody)
heavy: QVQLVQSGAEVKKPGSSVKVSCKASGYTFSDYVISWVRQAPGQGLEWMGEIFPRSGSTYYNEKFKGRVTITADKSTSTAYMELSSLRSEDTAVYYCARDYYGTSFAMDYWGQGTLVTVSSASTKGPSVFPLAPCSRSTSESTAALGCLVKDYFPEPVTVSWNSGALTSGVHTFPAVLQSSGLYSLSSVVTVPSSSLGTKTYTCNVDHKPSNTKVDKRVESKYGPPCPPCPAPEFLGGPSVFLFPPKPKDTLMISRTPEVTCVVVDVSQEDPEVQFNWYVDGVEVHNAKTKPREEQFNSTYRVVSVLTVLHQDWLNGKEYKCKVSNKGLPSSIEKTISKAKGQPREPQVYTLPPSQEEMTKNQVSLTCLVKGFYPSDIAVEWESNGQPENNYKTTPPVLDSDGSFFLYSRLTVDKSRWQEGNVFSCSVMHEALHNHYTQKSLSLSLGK
light: B4 light with S5T
EC50 (tau peptide 352-380 [14]): 0.0814 mg/L | EC50 (tau peptide 314-342 [15]): 0.013 mg/L | EC50 (tau peptide 256-285 [16]): 0.0132 mg/L | EC50 (tau peptide 282-311 [7]): 0.0067 mg/L | Ka [17]: 7.75e+08 M⁻¹ | Ka [18]: 6.5e+07 M⁻¹

B14: mouse monoclonal antibody DC8E8 (antibody)
heavy: QVQLQQSGPELVKPGTSVKMPCKASGYIFTDYVISWVKQRTGQGLEWIGEIFPRSGSTYYNEKFKGKATLTADKSSNTAYMQLSSVTSEDSAVYFCARDYYGTSFAMDYWGQGTSVTVSSAKTTPPSVYPLAPGSAAQTNSMVTLGCLVKGYFPEPVTVTWNSGSLSSGVHTFPAVLQSDLYTLSSSVTVPSSTWPSQTVTCNVAHPASSTKVDKKIVPRDCGCKPCICTVPEVSSVFIFPPKPKDVLTITLTPKVTCVVVDISKDDPEVQFSWFVDDVEVHTAQTKPREEQINSTFRSVSELPIMHQDWLNGKEFKCRVNSAAFPAPIEKTISKTKGRPKAPQVYTIPPPKEQMAKDKVSLTCMITNFFPEDITVEWQWNGQPAENYKNTQPIMDTDGSYFVYSKLNVQKSNWEAGNTFTCSVLHEGLHNHHTEKSLSHSPGK
VL: DIVMSQSPSSLAVSAGEKVTMSCKSSQSLLNSRTRKNYLAWYQQKPGQSPKLLIYWASTRESGVPDRFTGSGSGTDFTLTISSVQAEDLAVYYCKQSFYLRTFGGGTKLDIK
EC50 [13]: 0.0448 mg/L | EC50 (tau peptide 352-380 [1]): 0.213 mg/L | EC50 (tau peptide 314-342 [2]): 0.039 mg/L | EC50 (tau peptide 282-311 [3]): 0.0118 mg/L | EC50 (tau peptide 256-285 [4]): 0.0433 mg/L | Kd [29]: 0.0104 µM | Kd [9]: 0.0104 µM | Ka [10]: 1.9e+08 M⁻¹ | Ka [11]: 3.9e+07 M⁻¹

Reference: patent US20180142007A1 (published 2018)
